Results from patent US20220047716A1 (SUTRO BIOPHARMA, published 2022).

Biological target: human folate receptor alpha (hFOLR1) (human, UniProt P15328 25-234)
Test: cell-based or functional assay

Sequence of human folate receptor alpha (hFOLR1) (P15328 25-234 limits assumed): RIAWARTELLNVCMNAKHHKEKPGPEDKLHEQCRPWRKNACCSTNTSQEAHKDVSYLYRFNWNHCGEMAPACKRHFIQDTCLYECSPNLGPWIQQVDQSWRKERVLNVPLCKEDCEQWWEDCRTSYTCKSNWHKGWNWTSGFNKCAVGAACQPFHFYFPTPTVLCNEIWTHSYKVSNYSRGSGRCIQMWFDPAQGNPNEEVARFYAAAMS

Binder	Igrov 2° antibody cell killing EC50	Igrov 2° antibody cell killing Span	KB 2° antibody cell killing EC50	KB 2° antibody cell killing Span
SRP1848-D04 (antibody, V domains shown) VH: EVQLVESGGGLVQPGGSLRLSCAASGFNISHYSIHWVRQAPGKGLEWVGEIYPRDGITDYADSVKGRFTISADTSKNTAYLQMNSLSAEDTAVYYCARGYWFWRSGYGYYLDYWGQGTLVTVSS VL: not shown	68 pM	77%	380 pM	97%
SRP1848-F05 (antibody, V domains shown) VH: EVQLVESGGGLVQPGGSLRLSCAASGFNISKSSIHWVRQAPGKGLEWVGEIYPNDGSTDYADSVKGRFTISADTSKNTAYLQMNSLRAEDTAVYYCARGSWAWRSGYSYFLDYWGQGTLVTVSS VL: not shown	15 pM	74%	61 pM	94%
SRP1848-D10 (antibody, V domains shown) VH: EVQLVESGGGLVQPGGSLRLSCAASGFNISRNSIHWVRQAPGKGLEWVGWISPNDGTTDYADSVKGRFTISADGSKNTAYLQMNSLRAEDTAVYYCARGAWSWRSGYGYYIDYWGQGTLVTVSS VL: not shown	12 pM	54%	16 pM	90%
SRP1848-F10 (antibody, V domains shown) VH: EVQLVESGGGLVQPGGSLRLSCAASGFNISNNSIHWVRQAPGKGLEWVGSIFPNDGYTDYADSVKGRFTISADTSKNTAYLQMNSLRAEDTAVYYCARGSWFWRSGYGYYLDYWGQGTLVTVSS VL: not shown	9 pM	68%	38 pM	94%
SRP1848-D05 (antibody, V domains shown) VH: EVQLVESGGGLVQPGGSLRLSCAASGFNISISYIHWVRQAPGKGLEWVGGISPIDGYTDYADSVKGRFTISADTSKNTAYLQMNSLRAEDTAVYYCARGSWSWRAGYGYYLDYWGQGTLVTVSS VL: not shown		73%	55 pM	92%
SRP1848-F01 (antibody, V domains shown) VH: EVQLVESGGGLVQPGGSLRLSCAASGFNIRTYSIHWVRQAPGKGLEWVGSIFPNDGTTDYADSVKGRFTISADTSKNTAYLQMNSLRAEDTAVYYCARGSWAWRAGYSYYLDYWGQGTLVTVSS VL: not shown	18 pM	69%	47 pM	91%
SRP1848-E05 (antibody, V domains shown) VH: EVQLVESGGGLVQPGGSLRVSCAASGFNIGVYYIHWVRQAPGKGLEWVGGITPNDGYTDYADSVKGRFTISADTSKNTAYLQMNSLRAEDTAVYYCARGFWAWRSGYGYYLDYWGQGTLVTVSS VL: not shown	27 pM	78%	71 pM	95%
SRP1848-F07 (antibody, V domains shown) VH: EVQLVESGGGLVQPGGSLRLSCAASGFNISNHSIHWVRQAPGKGLEWVGEIYPNDGITDYADSVKGRFTISADTSKNTAYLQMNSLSAEDTAVYYCARGSWDWRSGYSYYLDYWGQGTLVTVSS VL: not shown	18 pM	71%	57 pM	92%
SRP1848-D09 (antibody, V domains shown) VH: EVQLVESGGGLVQPGGSLRLSCAASGFNISNYYIHWVRQAPGKGLEWVGGISPNDGYTDYADSVKGRFTISADTSKNTAYLQMNSLRAEDTAVYYCARGSWSWRHGYGYYLDYWGQGTLVTVSS VL: not shown	23 pM	70%	42 pM	91%
SRP1848-F09 (antibody, V domains shown) VH: EVQLVESGGGLVQPGGSLRLSCAASGFNISNHYIHWVRQAPGKGLEWVGGISPLDGYTDYADSVKGRFTISADTSKNTAYLQMNSLRAEDTAVYYCARGAWSWRSGYGYYIDYWGQGTLVTVSS VL: not shown	50 pM	79%	56 pM	93%
SRP1848-E01 (antibody, V domains shown) VH: EVQLVESGGGLVQPGGSLRLSCAASGFNITNKYIHWVRQAPGKGLEWVGGITPFDGFTDYADSVKGRFTISADTSKNTAYLQMNSLRAEDTAVYYCARGSWSWPAGYGYYQDYWGQGTLVTVSS VL: not shown	29 pM	72%	88 pM	92%
SRP1848-E07 (antibody, V domains shown) VH: EVQLVESGGGLVQPGGSLRLSCAASGFNIRKSSIHWVRQAPGKGLEWVGEIFPYDGSTDYADNVKGRFTISADTSKNTAYLQMNSLRAEDTAVYYCARGAWSWRSGYGYYIDYWGQGTLVTVSS VL: not shown	13 pM	73%	59 pM	94%
SRP1848-F02 (antibody, V domains shown) VH: EVQLVESGGGLVQPGGSLRLSCAASGFNIRTYSIHWVRQAPGKGLEWVGSIFPNDGTTDYADSVKGRLTISADTSKNTAYLQMNSLRAEDTAVYYCARGSWSWQAGYGYYLDYWGQGTLVTVSS VL: not shown	9 pM	54%	54 pM	92%
SRP1848-D07 (antibody, V domains shown) VH: EVQLVESGGGLVQPGGSLRLSCAASGFNISKYYIHWVRQAPGKGLEWVGGISPNDGYTDYADSVKGRFAISADTSKNTAYLQMNSLRAEDTAVYYCARGFWAWRSGYGYYLDYWGQGTLVTVSS VL: not shown	32 pM	71%	75 pM	94%
SRP1848-F06 (antibody, V domains shown) VH: EVQLVESGGGLVQPGGSLRLSCAASGFNISLSYIHWVRQAPGKGLEWVGGISPIDGNTDYADSVKGRFTISADTSKNTAYLQMNSLRAEDTAVYYCARGFWAWRSGYGYYLDYWGQGTLVTVSS VL: not shown	32 pM	77%	66 pM	94%
SRP1848-E02 (antibody, V domains shown) VH: EVQLVESGGGLVQPGGSLRLSCAASGFNIGKYSIHWVRQAPGKGLEWVGEIYPNDGNTDYADSVKGRFTISADTSKNTAYLQMNSLRAEDTAVYYCARGSWSWRSGYGYYLDYWGQGTLVTVSS VL: not shown	25 pM	71%	46 pM	93%
SRP1848-F08 (antibody, V domains shown) VH: EVQLVESGGGLVQPGGSLRLSCAAGGFNISNHSIHWVRQAPGKGVEWVGEIYPVDGITDYADSVKGRFTISADTSKNTAYLRMNSLRAEDTAVYYCARGSWYWQSGYSYYLDYWGQGTLVTVSS VL: not shown	24 pM	77%	61 pM	94%
